Test results as given in US20220041717A1 (AFFIMED, published 2022).

Assays:
[1] = molecular target: CD16A (FcgammaRIIIA) on primary human NK-cells (human) (UniProt P08637); assay: cell-based or functional assay
[2] = molecular target: CD16A (FcgammaRIIIA) on primary human NK-cells (human) (UniProt P08637); assay: flow cytometry, titration on primary human NK-cells at 37 C, buffer; detection with anti-His mAb
[3] = molecular target: CD16A (FcgammaRIIIA) on primary human NK-cells (human) (UniProt P08637); assay: flow cytometry titration on primary human NK-cells, 37 C; detection with anti-His mAb, FITC goat anti-mouse IgG
[4] = molecular target: T1, CD16A (FcgammaRIIIA) on primary human NK-cells (human, UniProt P08637 17-208); assay: cell-based or functional assay
T1 sequence (P08637 17-208): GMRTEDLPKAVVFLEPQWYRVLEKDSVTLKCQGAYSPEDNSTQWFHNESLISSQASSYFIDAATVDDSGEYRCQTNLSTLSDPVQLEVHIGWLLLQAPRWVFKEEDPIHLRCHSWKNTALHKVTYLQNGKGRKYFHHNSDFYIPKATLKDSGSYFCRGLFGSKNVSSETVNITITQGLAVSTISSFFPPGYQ

[5] = molecular target: T2, B-cell maturation antigen (BCMA) on myeloma cell lines (human, UniProt Q02223 1-184); assay: cell-based or functional assay
T2 sequence (looked up): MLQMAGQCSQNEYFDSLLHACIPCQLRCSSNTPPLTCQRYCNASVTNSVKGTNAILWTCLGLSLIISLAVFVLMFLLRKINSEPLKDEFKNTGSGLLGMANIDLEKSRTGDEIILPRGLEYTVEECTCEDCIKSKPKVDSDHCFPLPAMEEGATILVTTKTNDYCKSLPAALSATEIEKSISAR

[6] = molecular target: T2, B-cell maturation antigen (BCMA) on …; assay: cell-based or functional assay; remark: listed apart in the source
[7] = molecular target: T2, B-cell maturation antigen (BCMA) on …; assay: flow cytometry, titration on MM.1S cells; detection with CD16A-mFc.67/anti-human-FITC
Procedure: (§1) Antibody binding was quantified by detection with CD16A-mFc.67/anti-human-FITC and flow cytometry. control antibodies anti-BCMA (ANC3B1), anti-CD38 (HB7) and anti-CS1 (235614) were added at saturating concentrations and detected by anti-mouse-Fc-FITC (ctrl.)

[8] = molecular target: T1, CD16A (FcgammaRIIIA) on primary human …; assay: flow cytometry, titration on primary human NK-cells at 37 C, buffer; apparent affinity
Procedure: (§2) Method: Serial dilutions of anti-CD16A scFv are added to primary human NK-cells at 37° C. for 45 min followed by detection of antibody binding on ice.

[9] = molecular target: T2, B-cell maturation antigen (BCMA) on …; assay: flow cytometry, titration on NCI-H929 cells; detection with CD16A-mFc.67/anti-human-FITC
Procedure: as §1

[10] = molecular target: T2, B-cell maturation antigen (BCMA) on …; assay: flow cytometry, titration on RPMI-8226 cells; detection with CD16A-mFc.67/anti-human-FITC
Procedure: as §1

[11] = molecular target: T2, B-cell maturation antigen (BCMA) on …; assay: flow cytometry titration on MM.1S cells; detection with CD16A-mFc.67/anti-human-FITC
Procedure: as §1

[12] = molecular target: T1, CD16A (FcgammaRIIIA) on primary human …; assay: flow cytometry on primary human NK-cells, with against without 10 mg/mL polyclonal human IgG
[13] = molecular target: T2, B-cell maturation antigen (BCMA) on …; assay: flow cytometry titration on NCI-H929 cells; detection with CD16A-mFc.67/anti-human-FITC
Procedure: as §1

[14] = molecular target: T1, CD16A (FcgammaRIIIA) on primary human …; assay: flow cytometry, titration on primary human NK-cells at 37 C in presence of 10 mg/mL polyclonal human IgG (competitor)
[15] = molecular target: T1, CD16A (FcgammaRIIIA) on primary human …; assay: flow cytometry, titration on primary human NK-cells at 37 C, buffer; apparent affinity; detection via BCMA(1-54)-GCN4-His/anti-His
[16] = molecular target: T1, CD16A (FcgammaRIIIA) on primary human …; assay: flow cytometry titration on primary human NK-cells, 37 C; detection with BCMA(1-54)-GCN4-His, anti-His mAb, FITC goat anti-mouse IgG
Procedure: as §2

[17] = molecular target: T1, CD16A (FcgammaRIIIA) on primary human …; assay: flow cytometry titration on primary human NK-cells, 37 C, buffer without IgG; detection with BCMA(1-54)-GCN4-His, anti-His mAb, FITC goat anti-mouse IgG
[18] = molecular target: T1, CD16A (FcgammaRIIIA) on primary human …; assay: flow cytometry titration on primary human NK-cells, 37 C, in presence of 10 mg/mL polyclonal human IgG; detection with BCMA(1-54)-GCN4-His, anti-His mAb, FITC goat anti-mouse IgG
[19] = molecular target: T3, CS1 on myeloma cells (UniProt Q9NQ25 23-335, limits assumed); assay: cell-based or functional assay
[20] = molecular target: T3, CS1 on myeloma cells; assay: cell-based or functional assay; remark: listed apart in the source
[21] = molecular target: T3, CS1 on myeloma cells; assay: flow cytometry, titration on MM.1S cells; detection with CD16A-mFc.67/anti-human-FITC
Procedure: as §1

[22] = molecular target: T3, CS1 on myeloma cells; assay: flow cytometry, titration on NCI-H929 cells; detection with CD16A-mFc.67/anti-human-FITC
Procedure: as §1

Chain of CD16A (FcgammaRIIIA) on primary human NK-cells (human) (P08637 17-208): as the sequence (P08637 17-208) above

B1: Anti-CD16A diabody (protein, not shown: small tags and cut ends)
VL: SYVLTQPSSVSVAPGQTATISCGGHNIGSKNVHWYQQRPGQSPVLVIYQDNKRPSGIPERFSGSNSGNTATLTISGTQAMDEADYYCQVWDNYSVLFGGGTKLTVL
VH: QVQLVQSGAEVKKPGESLKVSCKASGYTFTSYYMHWVRQAPGQGLEWMGAIEPMYGSTSYAQKFQGRVTMTRDTSTSTVYMELSSLRSEDTAVYYCARGSAYYYDFADYWGQGTLVTVSS
modifications: diabody linker not stated
EC50 of antibody-induced NK-cell-NK-cell lysis (4 h calcein release) [1]: 659 pM

B2: Anti-CD16A scFv (scFv, V domains shown, part only)
VL: SYVLTQPSSVSVAPGQTATISCGGHNIGSKNVHWYQQRPGQSPVLVIYQDNKRPSGIPERFSGSNSGNTATLTISGTQAMDEADYYCQVWDNYSVLFGGGTKLTVL
VH: QVQLVQSGAEVKKPGESLKVSCKASGYTFTSYYMHWVRQAPGQGLEWMGAIEPMYGSTSYAQKFQGRVTMTRDTSTSTVYMELSSLRSEDTAVYYCARGSAYYYDFADYWGQGTLVTVSS
Kd [2]: 12.2 nM
EC50 (read off the curve) [3]: 10 nM

B3: BCMA/CD16A-directed tandem diabody in variant 4 (bispecific antibody)
chain: QVQLVQSGAEVKTPGEPLKISCKGSGYSFTDSWIGWVRQMPGKGLEWMGIIYAGDSDARYSPSFQGQVTISADTSTSTVYLQWSSLKASDTAMYYCARNFGDHWGQGTLVTVSSGGSGGSGGSGGSSYVLTQPSSVSVAPGQTATISCGGHNIGSKNVHWYQQRPGQSPVLVIYQDNKRPSGIPERFSGSNSGNTATLTISGTQAMDEADYYCQVWDNYSVLFGGGTKLTVLGGSQVQLVQSGAEVKKPGESLKVSCKASGYTFTSYYMHWVRQAPGQGLEWMGAIEPMYGSTSYAQKFQGRVTMTRDTSTSTVYMELSSLRSEDTAVYYCARGSAYYYDFADYWGQGTLVTVSSGGSGGSGGSGGSSYELTQSPSVSVAPGQTARIFCGGDNIGSKNVHWYQQKPGQAPVLVIYRDSNRPSGIPERFSGANSENTATLTISRAQAGDEADYYCQVWDSRTYVFGTGTKLTVL
notes: also called tandem diabody variant 4; Tandem diabody (v4)
EC50 of NK-cell-mediated lysis of BCMA+ NCI-H929 cells (4 h calcein release), 10 mg/mL polyclonal human IgG [4]: 76.1 pM
EC50 of NK-cell-mediated lysis of BCMA+ NCI-H929 cells (4 h calcein release), buffer [4]: 16.2 pM
Fold-loss in potency (EC50 with 10 mg/mL IgG against buffer) [4]: 4.7 fold
EC50 of NK-cell-mediated lysis of MM.1S cells (4 h calcein release) [5]: 3.7 pM
EC50 of NK-cell-mediated lysis of NCI-H929 cells (4 h calcein release) [5]: 9.1 pM
EC50 of NK-cell-mediated lysis of RPMI-8226 cells (4 h calcein release) [5]: 62.3 pM
EC50 of NK-cell-mediated lysis of primary myeloma cells from a pleural effusion (multiple myeloma; 4 h 51Cr release) [6]: 4 pM
EC50 of NK-cell-mediated lysis of primary myeloma cells from peripheral blood (plasma cell leukemia; 4 h 51Cr release) [6]: 6.3 pM
Kd [7]: 11.5 nM
Kd [8]: 1.2 nM
Kd [9]: 27.7 nM
Kd [10]: 26.7 nM
EC50 (read off the curve) [11]: ~10 nM
fold-change (KD with 10 mg/mL IgG against KD in buffer) [12]: 3 fold
EC50 (read off the curve) [13]: ~20 nM
Kd [14]: 3.6 nM
Kd [15]: 1.2 nM
EC50 (read off the curve) [16]: ~1 nM
EC50 (read off the curve) [17]: ~1 nM
EC50 (read off the curve) [18]: ~4 nM

B4: elotuzumab (antibody, V domains shown)
VH: EVQLVESGGGLVQPGGSLRLSCAASGFDFSRYWMSWVRQAPGKGLEWIGEINPDSSTINYAPSLKDKFIISRDNAKNSLYLQMNSLRAEDTAVYYCARPDGNYWYFDVWGQGTLVTVSS
VL: DIQMTQSPSSLSASVGDRVTITCKASQDVGIAVAWYQQKPGKVPKLLIYWASTRHTGVPDRFSGSGSGTDFTLTISSLQPEDVATYYCQQYSSYPYTFGQGTKVEIK
EC50 of NK-cell-mediated lysis of MM.1S cells (4 h calcein release) [19]: 153 pM
EC50 of NK-cell-mediated lysis of NCI-H929 cells (4 h calcein release) [19]: 394 pM
EC50 of NK-cell-mediated lysis of primary myeloma cells (multiple myeloma; 4 h 51Cr release) [20]: 146 pM
EC50 of NK-cell-mediated lysis of primary myeloma cells (plasma cell leukemia; 4 h 51Cr release) [20]: 78.2 pM
Kd [21]: 35.7 nM
Kd [22]: 36 nM
